Measurements published in patent EP4722243A1 (Beijing Dongfang Biotech Co. Ltd., dated 2026).
Where two headings read alike, the source gives them in different places.

T1: human IL-11 (human, UniProt P20809 22-199, limits assumed)
T1 construct: also called IL-11 antigen; IL-11 protein
T1 sequence (looked up): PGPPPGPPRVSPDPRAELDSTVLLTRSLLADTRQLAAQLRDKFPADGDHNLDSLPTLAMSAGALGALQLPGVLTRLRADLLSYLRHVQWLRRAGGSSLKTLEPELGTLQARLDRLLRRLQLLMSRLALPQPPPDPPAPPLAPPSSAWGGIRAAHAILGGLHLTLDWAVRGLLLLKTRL

T2: IL-11-Fc antigen (human, UniProt P20809 22-199, limits assumed)
T2 construct: The construct is not described; not shown: Fc part
T2 sequence (looked up): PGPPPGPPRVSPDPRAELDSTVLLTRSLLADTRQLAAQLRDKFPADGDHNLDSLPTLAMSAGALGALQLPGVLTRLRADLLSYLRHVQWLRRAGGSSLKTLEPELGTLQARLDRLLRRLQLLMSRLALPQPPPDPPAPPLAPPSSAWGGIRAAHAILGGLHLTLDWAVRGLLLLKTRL

T3: IL-11-mFc ligand protein (human, UniProt P20809 22-199)
T3 sequence (looked up): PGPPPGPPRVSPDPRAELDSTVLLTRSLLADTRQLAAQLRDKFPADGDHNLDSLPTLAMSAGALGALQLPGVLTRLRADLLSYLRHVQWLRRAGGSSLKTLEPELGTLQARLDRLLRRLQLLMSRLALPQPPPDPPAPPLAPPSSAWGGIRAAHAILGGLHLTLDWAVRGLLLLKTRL


Experiments:
[1] = biological target: T1, human IL-11; assay: ELISA, IL-11 coated, goat anti-mouse IgG-HRP detection
[2] = biological target: T2, IL-11-Fc antigen; assay: competition ELISA: IL-11-Fc coated, competitor IL-11RA-Fc (IgG4 type) at 0.5 ug/mL, anti-human IgG4-HRP detection
[3] = biological target: T3, IL-11-mFc ligand protein; assay: cell-based or functional assay
[4] = biological target: T3, IL-11-mFc ligand protein; assay: flow cytometry: inhibition of IL-11-mFc binding to IL-11RA on BaF/3-IL-11RA cells, goat anti-mouse IgG-FITC detection
[5] = biological target: T1, human IL-11; assay: ELISA, IL-11 coated, goat anti-human IgG Fab HRP detection
[6] = biological target: T3, IL-11-mFc ligand protein; assay: cell-based or functional assay; remark: listed apart in the source
[7] = biological target: T3, IL-11-mFc ligand protein; assay: flow cytometry: inhibition of IL-11-mFc binding to GP130 on BaF/3-GP130 cells, goat anti-mouse IgG-FITC detection
[8] = biological target: T1, human IL-11; assay: cell-based or functional assay
[9] = biological target: T3, IL-11-mFc ligand protein; assay: flow cytometry: inhibition of IL-11-mFc binding to IL-11RA on BaF/3-IL-11RA cells, goat anti-mouse IgG-FITC detection; remark: listed apart in the source

Row | Binder | EC50 [1] [µg/mL] | IC50 [2] [µg/mL] | IC50 of inhibition of TIMP-1 secretion by MRC-5 cells stimulated with IL-11-mFc [3] [µg/mL] | IC50 [4] [µg/mL] | EC50 [5] [µg/mL] | also measured
1 | murine antibody molecule MA-I (mouse IgG1 / mouse Ckappa) (antibody, also called murine anti-IL-11 monoclonal antibody MA-I) heavy: EVKLEESGGGLVKPGGSLKLSCAASGFTFSDYYMFWVRQTPEKRLEWVATISDGGTYTYYPDSVKGRFTISRDNAKNNLYLQMTSLKSEDTAMYYCARDGGYVSSPEAMDYWGQGTSVTVSSAKTTPPSVYPLAPGSAAQTNSMVTLGCLVKGYFPEPVTVTWNSGSLSSGVHTFPAVLQSDLYTLSSSVTVPSSTWPSETVTCNVAHPASSTKVDKKIVPRDCGCKPCICTVPEVSSVFIFPPKPKDVLTITLTPKVTCVVVDISKDDPEVQFSWFVDDVEVHTAQTQPREEQFNSTFRSVSELPIMHQDWLNGKEFKCRVNSAAFPAPIEKTISKTKGRPKAPQVYTIPPPKEQMAKDKVSLTCMITDFFPEDITVEWQWNGQPAENYKNTQPIMDTDGSYFVYSKLNVQKSNWEAGNTFTCSVLHEGLHNHHTEKSLSHSPG light: DIVLTQSTSSLSASLGDRVTISCRASQDISNYLNWYQQKPDGTVKLLIYYTSRLHSGVPSRFSGSGSGTDYSLTISNLEQEDIATYFCQQGNTLPPTFGGGTKLEIKADAAPTVSIFPPSSEQLTSGGASVVCFLNNFYPKDINVKWKIDGSERQNGVLNSWTDQDSKDSTYSMSSTLTLTKDEYERHNSYTCEATHKTSTSPIVKSFNRNEC | 0.00341 | 0.331 | 0.453 | 3.3 | – | –
2 | murine antibody molecule MA-II (mouse IgG1 / mouse Ckappa) (antibody, also called murine anti-IL-11 monoclonal antibody MA-II) heavy: EVKLEESGGGLVKPGGSLKLSCAASGFTFSDYYMFWVRQTPEKRLEWVATISDGGTYTYYPDSVKGRFTISRDNAKNNLYLQMTSLKSEDTAMYYCARDGGYVSSPEAMDYWGQGTSVTVSSAKTTPPSVYPLAPGSAAQTNSMVTLGCLVKGYFPEPVTVTWNSGSLSSGVHTFPAVLQSDLYTLSSSVTVPSSTWPSETVTCNVAHPASSTKVDKKIVPRDCGCKPCICTVPEVSSVFIFPPKPKDVLTITLTPKVTCVVVDISKDDPEVQFSWFVDDVEVHTAQTQPREEQFNSTFRSVSELPIMHQDWLNGKEFKCRVNSAAFPAPIEKTISKTKGRPKAPQVYTIPPPKEQMAKDKVSLTCMITDFFPEDITVEWQWNGQPAENYKNTQPIMDTDGSYFVYSKLNVQKSNWEAGNTFTCSVLHEGLHNHHTEKSLSHSPG light: DIVLTQSTSSLSASLGDRVTISCRASQDISNYLNWYQQKPDGTVKLLIYYTSRLHSGVPSRFSGSGSGTDYSLTISNLEQEDIATYFCQQGNTLPWTFGGGTKLEIKADAAPTVSIFPPSSEQLTSGGASVVCFLNNFYPKDINVKWKIDGSERQNGVLNSWTDQDSKDSTYSMSSTLTLTKDEYERHNSYTCEATHKTSTSPIVKSFNRNEC | 0.00372 | 0.378 | 0.475 | 11.1 | – | –
3 | murine antibody molecule MA-IV (mouse IgG1 / mouse Ckappa) (antibody, V domains shown, also called murine anti-IL-11 monoclonal antibody MA-IV) VH: EVQLEESGGGLVKPGGSLKLSCVASGFTFSDYYMFWVRQTPEKRLEWVATISDGGSYSYYPDSVKGRFTISRDNAKNNLYLQMSSLRSEDTAMYYCARDGGYISSPEAMDYWGQGTSVTVSS VL: DIVLTQSTSSLSASLGDRVTISCRASQDISNYLNWYQQKPDGTVKLLIYYTSRLHSGVPSRFSGSGSGTDYSLTISNLEQEDIATYFCQQGNTLPPTFGGGTKLEIKA | 0.00425 | 0.778 | 4.6 | 59.1 | – | –
4 | humanized antibody molecule HA-I-C (antibody, human IgG1, kappa, L234A L235A, V domains shown) VH: QVQLVESGGGLVKPGGSLRLSCAASGFTFSDYYMFWVRQAPGKGLEWVATISDGGTYTYYPDSVKGRFTISRDNAKNSLYLQMNSLRAEDTAVYYCARDGGYVSSPEAMDYWGQGTLVTVSS VL: DIVLTQSPSSLSASVGDRVTITCRASQDISNYLNWYQQKPGKAVKLLIYYTSRLHSGVPSRFSGSGSGTDYTFTISSLQPEDIATYFCQQGNTLPPTFGGGTKVEIKR | – | – | – | – | 0.0252 | IC50 of inhibition of TIMP-1 secretion by MRC-5 cells stimulated with IL-11-mFc [6]: 0.343 µg/mL; IC50 [7]: 46.2 µg/mL; IC50, reporter gene (BaF/3-GP130-STAT3-Luc cells stimulated with IL-11 protein, luciferase) [8]: 0.152 µg/mL; IC50 [9]: 4.87 µg/mL
5 | humanized antibody molecule HA-I-B (antibody, human IgG1, kappa, L234A L235A, V domains shown) VH: QVQLVESGGGLVKPGGSLRLSCAASGFTFSDYYMFWVRQAPGKGLEWVSTISDGGTYTYYPDSVKGRFTISRDNAKNSLYLQMNSLRAEDTAVYYCARDGGYVSSPEAMDYWGQGTLVTVSS VL: DIVLTQSPSSLSASVGDRVTITCRASQDISNYLNWYQQKPGKAPKLLIYYTSRLHSGVPSRFSGSGSGTDYTFTISSLQPEDIATYYCQQGNTLPPTFGGGTKVEIKR | – | – | – | – | 0.0232 | IC50 of inhibition of TIMP-1 secretion by MRC-5 cells stimulated with IL-11-mFc [6]: 0.19 µg/mL; IC50 [7]: 39.6 µg/mL; IC50, reporter gene (BaF/3-GP130-STAT3-Luc cells stimulated with IL-11 protein, luciferase) [8]: 0.103 µg/mL; IC50 [9]: 3.58 µg/mL
6 | humanized antibody molecule HA-I-D (antibody, human IgG1, kappa, L234A L235A, V domains shown) VH: QVQLVESGGGLVKPGGSLRLSCAASGFTFSDYYMFWVRQAPGKGLEWVATISDGGTYTYYPDSVKGRFTISRDNAKNSLYLQMNSLRAEDTAMYYCARDGGYVSSPEAMDYWGQGTSVTVSS VL: DIVLTQSPSSLSASVGDRVTITCRASQDISNYLNWYQQKPGGAVKLLIYYTSRLHSGVPSRFSGSGSGTDYTFTISSLQPEDIATYFCQQGNTLPPTFGGGTKVEIKR | – | – | – | – | 0.0261 | IC50 of inhibition of TIMP-1 secretion by MRC-5 cells stimulated with IL-11-mFc [6]: 0.657 µg/mL; IC50 [7]: 128 µg/mL; IC50, reporter gene (BaF/3-GP130-STAT3-Luc cells stimulated with IL-11 protein, luciferase) [8]: 0.465 µg/mL; IC50 [9]: 13.8 µg/mL
7 | murine antibody molecule MA-III (mouse IgG1 / mouse Ckappa) (antibody, V domains shown, also called murine anti-IL-11 monoclonal antibody MA-III) VH: EVKLEQSGAEVVKPGALVKMSCKASGYTFTSYWMHWVKQRPGQGLEWIGVIDPSDSYTTYNQKFKGKATLTVDTSSSTGYMQLSSLTSEDSAVYYCSQYGYDVNWYFDVWGAGTTVTVSS VL: DIVMTQTTLSLPVSLGDQASISCRSSQSIVHSNGNTYLEWYLQKPGQSPKLLIYEVSNRFSGVPDRFSGSGSGTDFTLKISRVEAEDLGVYYCFQGSHVPWTFGGGTKLEIKA | 0.00379 | 0.421 | 1.36 | 19.1 | – | –
8 | humanized antibody molecule HA-II-B (antibody, human IgG1, kappa, L234A L235A, V domains shown) VH: QVQLVESGGGLVKPGGSLRLSCAASGFTFSDYYMFWVRQAPGKGLEWVATISDGGTYTYYPDSVKGRFTISRDNAKNSLYLQMNSLRAEDTAVYYCARDGGYVSSPEAMDYWGQGTLVTVSS VL: DIVLTQSPSSLSASVGDRVTITCRASQDISNYLNWYQQKPGKAPKLLIYYTSRLHSGVPSRFSGSGSGTDYTFTISSLQPEDIATYYCQQGNTLPWTFGGGTKVEIKR | – | – | – | – | 0.0883 | –
9 | humanized antibody molecule HA-II-A (antibody, human IgG1, kappa, L234A L235A, V domains shown) VH: QVQLVESGGGLVKPGGSLRLSCAASGFTFSDYYMFWVRQAPGKGLEWVATISDGGTYTYYPDSVKGRFTISRDNAKNSLYLQMNSLRAEDTAVYYCARDGGYVSSPEAMDYWGQGTLVTVSS VL: DIVLTQSPSSLSASVGDRVTITCRASQDISNYLNWYQQKPGKAPKLLIYYTSRLHSGVPSRFSGSGSGTDFTFTISSLQPEDIATYYCQQGNTLPWTFGGGTKVEIKR | – | – | – | – | 0.102 | –
10 | humanized antibody molecule HA-II-C (antibody, human IgG1, kappa, L234A L235A, V domains shown) VH: QVQLVESGGGLVKPGGSLRLSCAASGFTFSDYYMFWVRQAPGKGLEWVSTISDGGTYTYYPDSVKGRFTISRDNAKNSLYLQMNSLRAEDTAVYYCARDGGYVSSPEAMDYWGQGTLVTVSS VL: DIVLTQSPSSLSASVGDRVTITCRASQDISNYLNWYQQKPGKAPKLLIYYTSRLHSGVPSRFSGSGSGTDYTFTISSLQPEDIATYYCQQGNTLPWTFGGGTKVEIKR | – | – | – | – | 0.0849 | –
11 | humanized antibody molecule HA-II-D (antibody, human IgG1, kappa, L234A L235A, V domains shown) VH: QVQLVESGGGLVKPGGSLRLSCAASGFTFSDYYMFWVRQAPGKGLEWVATISDGGTYTYYPDSVKGRFTISRDNAKNSLYLQMNSLRAEDTAMYYCARDGGYVSSPEAMDYWGQGTSVTVSS VL: DIVLTQSPSSLSASVGDRVTITCRASQDISNYLNWYQQKPGGTVKLLIYYTSRLHSGVPSRFSGSGSGTDYTFTISSLQPEDIATYFCQQGNTLPWTFGGGTKVEIKR | – | – | – | – | 0.0585 | –
12 | chimeric antibody CA-I (antibody, human IgG1, kappa, L234A L235A, Variable regions of MA-I on human IgG1 and human Ckappa constant regions) heavy: not shown light: DIVLTQSTSSLSASLGDRVTISCRASQDISNYLNWYQQKPDGTVKLLIYYTSRLHSGVPSRFSGSGSGTDYSLTISNLEQEDIATYFCQQGNTLPPTFGGGTKLEIKRTVAAPSVFIFPPSDEQLKSGTASVVCLLNNFYPREAKVQWKVDNALQSGNSQESVTEQDSKDSTYSLSSTLTLSKADYEKHKVYACEVTHQGLSSPVTKSFNRGEC | – | – | – | – | 0.0226 | –
13 | chimeric antibody CA-II (antibody, human IgG1, kappa, L234A L235A, Variable regions of MA-II on human IgG1 and human Ckappa constant regions) heavy: not shown light: DIVLTQSTSSLSASLGDRVTISCRASQDISNYLNWYQQKPDGTVKLLIYYTSRLHSGVPSRFSGSGSGTDYSLTISNLEQEDIATYFCQQGNTLPWTFGGGTKLEIKRTVAAPSVFIFPPSDEQLKSGTASVVCLLNNFYPREAKVQWKVDNALQSGNSQESVTEQDSKDSTYSLSSTLTLSKADYEKHKVYACEVTHQGLSSPVTKSFNRGEC | – | – | – | – | 0.0464 | –
